# What was measured:
# [1] = molecular target: biotinylated anti-human CD3ε antibody (capture surface of Example 6); assay: SPR Biacore T200; IgG 1 ug/ml over captured biotinylated anti-human CD3ε antibody, normalised to anti-human IgG surface and to the unstressed sample; sample stressed 14 d/37° C. pH 7.4
# [2] = molecular target: biotinylated anti-human CD3ε antibody (capture surface of Example 6); assay: SPR Biacore T200; IgG 1 ug/ml over captured biotinylated anti-human CD3ε antibody, normalised to anti-human IgG surface and to the unstressed sample; sample stressed 14 d/40° C. pH 6.0
Binder,Relative active concentrations (%) [1],Relative active concentrations (%) [2]
"P1AF1284 H2L2 anti-idiotypic IgG1 (antibody, V domains shown) VH: QVQLVQSGSELKKPGASVKVSCKASGYTVTDYSMNWVRQAPGQGLEWMGWINTETGEPRYTDDFTGRFVFSLDTSVSTAYLQISSLKAEDTAVYYCAREGDYDVFDYWGQGTLVTVSS VL: DIVMTQSPDSLAVSLGERATINCKSSKSVSTSSYSYMHWYQQKPGQPPKLLIKYVSYLESGVPDRFSGSGSGTDFTLTISSLQAEDVAVYYCQHSREFPYTFGQGTKLEIK",93%,98%
"P1AF1281 H1L1 anti-idiotypic IgG1 (antibody, V domains shown) VH: QVQLVQSGSELKKPGASVKVSCKASGYTVTDYSMNWVRQAPGQGLEWMGWINTETGEPRYTDDFKGRFVFSLDTSVSTAYLQISSLKAEDTAVYYCAREGDYDVFDYWGQGTLVTVSS VL: DIVMTQSPDSLAVSLGERATINCRASKSVSTSSYSYMHWYQQKPGQPPKLLIKYVSYLESGVPDRFSGSGSGTDFTLTISSLQAEDVAVYYCQHSREFPYTFGQGTKLEIK",93%,99%
"P1AF1285 H3L2 anti-idiotypic IgG1 (antibody, V domains shown) VH: QVQLVQSGSELKKPGASVKVSCKASGYTVTDYSMNWVRQAPGQGLEWMGWINTETGEPRYTQGFKGRFVFSLDTSVSTAYLQISSLKAEDTAVYYCAREGDYDVFDYWGQGTLVTVSS VL: DIVMTQSPDSLAVSLGERATINCKSSKSVSTSSYSYMHWYQQKPGQPPKLLIKYVSYLESGVPDRFSGSGSGTDFTLTISSLQAEDVAVYYCQHSREFPYTFGQGTKLEIK",94%,97%
"P1AF1287 H7L5 anti-idiotypic IgG1 (antibody, V domains shown) VH: QVQLVQSGAEVKKPGASVKVSCKASGYTVTDYSMNWVRQAPGQGLEWMGWINTETGEPRYTDDFKGRVTMTRDTSISTAYMELSRLRSDDTAVYYCAREGDYDVFDYWGQGTLVTVSS VL: DIVMTQSPDSLAVSLGERATINCRASKSVSTSSYSYMHWYQQKPGQPPKLLIYYVSYLESGVPDRFSGSGSGTDFTLTISSLQAEDVAVYYCQHSREFPYTFGQGTKLEIK",80%,98%
"P1AF1286 H3L3 anti-idiotypic IgG1 (antibody, V domains shown) VH: QVQLVQSGSELKKPGASVKVSCKASGYTVTDYSMNWVRQAPGQGLEWMGWINTETGEPRYTQGFKGRFVFSLDTSVSTAYLQISSLKAEDTAVYYCAREGDYDVFDYWGQGTLVTVSS VL: DIVMTQSPDSLAVSLGERATINCRASKSVSTSSYSYMHWYQQKPGQPPKLLIKYVSYLESGVPDRFSGSGSGTDFTLTISSLQAEDVAVYYCQQSREFPYTFGQGTKLEIK",87%,97%
"P1AF1283 H1L2 anti-idiotypic IgG1 (antibody, V domains shown) VH: QVQLVQSGSELKKPGASVKVSCKASGYTVTDYSMNWVRQAPGQGLEWMGWINTETGEPRYTDDFKGRFVFSLDTSVSTAYLQISSLKAEDTAVYYCAREGDYDVFDYWGQGTLVTVSS VL: DIVMTQSPDSLAVSLGERATINCKSSKSVSTSSYSYMHWYQQKPGQPPKLLIKYVSYLESGVPDRFSGSGSGTDFTLTISSLQAEDVAVYYCQHSREFPYTFGQGTKLEIK",94%,97%

# Reference: patent US20260035462A1
